Measurements from paper PMC5770238 (Science (New York, N.Y.), 2017).
Like-named read-outs stand apart in the source and are kept apart here.

Columns and labels:
Test in all cases: fluorescence polarisation
[1] = biological target: T1, Hsp104 N728A (sensor 1 ATPase mutant in NBD2) (S. cerevisiae, UniProt P31539 1-908, N728A)
[2] = biological target: T2, Hsp104 (S. cerevisiae AAA+ disaggregase), wild type (S. cerevisiae, UniProt P31539 1-908)
[3] = biological target: T3, Hsp104 T317A (sensor 1 ATPase mutant in NBD1) (S. cerevisiae, UniProt P31539 1-908, T317A)
T3 sequence (P31539 whole entry T317A): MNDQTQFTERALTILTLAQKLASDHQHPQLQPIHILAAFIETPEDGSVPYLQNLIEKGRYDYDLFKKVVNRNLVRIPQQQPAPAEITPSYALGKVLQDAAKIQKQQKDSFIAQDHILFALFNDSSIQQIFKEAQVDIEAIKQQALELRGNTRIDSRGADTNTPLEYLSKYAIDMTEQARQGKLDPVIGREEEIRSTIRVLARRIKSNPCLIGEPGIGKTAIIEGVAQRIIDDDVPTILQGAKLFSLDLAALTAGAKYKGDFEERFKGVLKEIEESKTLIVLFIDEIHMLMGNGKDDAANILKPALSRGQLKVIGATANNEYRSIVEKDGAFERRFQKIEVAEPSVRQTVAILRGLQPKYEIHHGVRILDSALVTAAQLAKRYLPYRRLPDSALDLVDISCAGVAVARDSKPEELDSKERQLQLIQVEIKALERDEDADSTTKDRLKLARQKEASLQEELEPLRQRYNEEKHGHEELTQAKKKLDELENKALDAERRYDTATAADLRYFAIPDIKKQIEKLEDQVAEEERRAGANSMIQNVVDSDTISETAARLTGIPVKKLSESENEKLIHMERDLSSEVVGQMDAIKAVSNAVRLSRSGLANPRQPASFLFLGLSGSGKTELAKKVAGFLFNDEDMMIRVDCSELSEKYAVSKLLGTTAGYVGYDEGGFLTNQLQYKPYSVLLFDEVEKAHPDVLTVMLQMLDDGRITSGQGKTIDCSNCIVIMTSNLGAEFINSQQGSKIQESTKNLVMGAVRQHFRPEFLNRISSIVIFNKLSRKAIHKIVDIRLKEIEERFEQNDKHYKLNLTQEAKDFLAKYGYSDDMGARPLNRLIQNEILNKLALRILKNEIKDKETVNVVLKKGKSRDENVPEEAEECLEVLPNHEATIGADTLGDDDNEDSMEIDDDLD

[4] = biological target: T1, Hsp104 N728A (sensor 1 ATPase mutant in …); remark: listed apart in the source
[5] = biological target: T2, Hsp104 (S. cerevisiae AAA+ …); remark: listed apart in the source
[6] = biological target: T3, Hsp104 T317A (sensor 1 ATPase mutant in …); remark: listed apart in the source

T1 sequence (P31539 whole entry N728A): as the sequence (P31539 whole entry T317A) above, with A317T, N728A counted along it
T2 sequence (P31539 whole entry): as the sequence (P31539 whole entry T317A) above, with A317T counted along it

B1: FITC-labeled casein (natural protein)
chain: RPKHPIKHQGLPQEVLNENLLRFFVAPFPEVFGKEKVNELSKDIGSESTEDQAMEDIKQMEAESISSSEEIVPNSVEQKHIQKEDVPSERYLGYLEQLLRLKKYKVPQLEIVPNSAEERLHSMKEGIHAQQKEPMIGVNQELAYFYPELFRQFYQLDAYPSGAWYYVPLGTQYTDAPSFSDIPNPIGSENSEKTTMPLW
modifications: FITC label (site not stated)
- Kd [1]: 16 to 20 nM
- Kd [2]: ~20 nM
- Kd [3]: ~1400 nM
- Kd [4]: ~33 nM
- Kd [5]: > 2000 nM
- Kd [6]: > 2000 nM
